Experimental findings from publication PMC4735526 (Nature Communications, 2016) are described below.

In one data set the target is T1, T-STAR STAR (UniProt O75525 1-183).
T1 sequence: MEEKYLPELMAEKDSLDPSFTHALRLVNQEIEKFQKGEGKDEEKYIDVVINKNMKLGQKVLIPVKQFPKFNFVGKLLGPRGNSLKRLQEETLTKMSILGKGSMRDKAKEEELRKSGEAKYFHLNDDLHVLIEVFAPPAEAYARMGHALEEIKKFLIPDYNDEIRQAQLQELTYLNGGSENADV
The data set is described as follows: X-ray crystallography; FP: 10 mM Tris pH 7, 100 mM NaCl, 0.1% beta-mercaptoethanol, 0.2 uM fluorescein-RNA, protein 0-200 uM, temperature not stated; NMR 303 K: Sam68 in 10 mM Tris pH.

The target in a further data set is Sam68 STAR (UniProt Q07666 97-283). The data set is described as follows: NMR chemical shift perturbation; FP: 10 mM Tris pH 7, 100 mM NaCl, 0.1% beta-mercaptoethanol, 0.2 uM fluorescein-RNA, protein 0-200 uM, temperature not stated; NMR 303 K: Sam68 in 10 mM Tris pH.

For the molecule AUUAAA (ssRNA), the binding result in the data set with T-STAR STAR and with Sam68 STAR was “binds” throughout.
